Measurements reported in PMC11598873, “Neutralizing VHH Antibodies Targeting the Spike Protein of PEDV” (Veterinary Sciences, 2024).

B1: VHH2–18 (recombinant, pcDNA3.1-VHH, 6 × His) (VHH)
VHH: QVQLQESGGGLVQAGGSLRLSCAASGYISDAYYMGWYRQAPGKEREFVATITHGTNTYYADSVKGRFTISRDNAKNTVYLQMNSLKPEDTAVYYCAASSLRKVLMTQLPTRLYYYWGQGTQVTVSS
B2: VHH1–4 (recombinant, pcDNA3.1-VHH, 6 × His) (VHH)
VHH: QVQLQESGGGLVQAGGSLRLSCAASGTIFCYGGMGWYRQAPGKERELVAGITMGTSTNYADSVKGRFTISRDNAKNTVYLQMNSLKPEDTAVYYCAAAVMVAGPYQSWHGYWGQGTQVTVSS
B3: VHH1–15 (recombinant, pcDNA3.1-VHH, 6 × His) (VHH)
VHH: QVQLQESGGGLVQAGGSLRLSCAASGYISDAYYMGWYRQAPGKEREFVATITHGTNTYYADSVKGRFTISRDNAKNTVYLQMNSLKPEDTAVYYCAVLETRSYSFRYWGQGTQVTVSS
notes: same VHH as m2; also called PEDV S-VHH; not shown: His6, C-terminal, kept
B4: VHH1–15 (pGADT7-VHH library clone) (VHH)
VHH: QVQLQESGGGLVQAGGSLRLSCAASGYISDAYYMGWYRQAPGKEREFVATITHGTNTYYADSVKGRFTISRDNAKNTVYLQMNSLKPEDTAVYYCAVLETRSYSFRYWGQGTQVTVSS
notes: clone from a synthetic nanobody yeast library; also called PEDV S-VHH; source: yeast two-hybrid fusion (AH109)
B5: VHH1–89 (recombinant, pcDNA3.1-VHH, 6 × His) (VHH)
VHH: QVQLQESGGGLVQAGGSLRLSCAASGYISDAYYMGWYRQAPGKEREFVATITHGTNTYYADSVKGRFTISRDNAKNTVYLQMNSLKPEDTAVYYCAVFLARIASFLPILLISLRYWGQGTQVTVSS
B6: VHH1–41 (recombinant, pcDNA3.1-VHH, 6 × His) (VHH)
VHH: QVQLQESGGGLVQAGGSLRLSCAASGSIFTFVRMGWYRQAPGKERELVAGIAIGSITYYADSVKGRFTISRDNAKNTVYLQMNSLKPEDTAVYYCAAQSVQKAETTSPFAYWGQGTQVTVSS
B7: VHH2–28 (recombinant, pcDNA3.1-VHH, 6 × His) (VHH)
VHH: QVQLQESGGGLVQAGGSLRLSCAASGSISLHPQMGWYRQAPGKERELVAGIATGGNTNYADSVKGRFTISRDNAKNTVYLQMNSLKPEDTAVYYCAVNEYHPRAMYALYIYWGQGTQVTVSS
B8: VHH2–77 (recombinant, pcDNA3.1-VHH, 6 × His) (VHH)
VHH: QVQLQESGGGLVQAGGSLRLSCAASGYISDAYYMGWYRQAPGKEREFVATITHGTNTYYADSVKGRFTISRDNAKNTVYLQMNSLKPEDTAVYYCAVFSTISVNIYTFLYVIFFYWGQGTQVTVSS
B9: VHH2–50 (recombinant, pcDNA3.1-VHH, 6 × His) (VHH)
VHH: QVQLQESGGGLVQAGGSLRLSCAASGYISDAYYMGWYRQAPGKEREFVATITHGTNTYYADSVKGRFTISRDNAKNTVYLQMNSLKPEDTAVYYCAALFSIIVYYFSNSNLVFNYWGQGTQVTVSS

Assays:
[1] = target: T1, PEDV S protein of strain PEDV-JSXH-2021 in infected Vero E6 cells (Porcine epidemic diarrhea virus, …, UniProt Q91AV1, strain); assay: cell-based or functional assay
[2] = target: T2, Recombinant PEDV S protein, strain PEDV-JSXH-2021, 3 × FLAG (pFastBac1-PEDV-S, rBV-PEDV-S) (Porcine epidemic diarrhea virus, …, UniProt Q91AV1, strain); assay: immunostaining of cells or tissue; IFA on Sf9 cells infected with rBV-PEDV-S (MOI 0.1, 48 h), fixed with 4% paraformaldehyde; diluted refolded VHH as primary antibody, mouse anti-His tag, then Alexa Fluor 488 goat anti-mouse IgG; uninfected Sf9 cells as mock; conditions: one partner purified
T2 construct: Spike (S) protein of porcine epidemic diarrhea virus strain PEDV-JSXH-2021; band of approximately 180 kDa on the blot; the plasmid was synthesised; also called PEDV S protein expressed in Sf9 cells; source: Sf9 cells infected with recombinant baculovirus rBV-PEDV-S; in fixed cells and in supernatant of sonicated cells; not shown: 3xFLAG, C-terminal, kept

[3] = target: T1, PEDV S protein of strain PEDV-JSXH-2021 …; assay: immunostaining of cells or tissue; IFA on Vero E6 cells infected with PEDV-JSXH-2021 (MOI 0.01, 48 h), fixed with 4% paraformaldehyde; purified VHH as primary antibody overnight at 4 °C, mouse anti-His tag, then Alexa Fluor 555 goat anti-mouse IgG; uninfected cells as mock; conditions: one partner purified
[4] = target: T3, PEDV spike (S) protein, strain PEDV-JSXH-2021, bait pGBKT7-PEDV-S (Porcine epidemic diarrhea virus, …, UniProt Q91AV1, strain); assay: two-hybrid; yeast AH109; bait in pGBKT7, prey in pGADT7; growth on SD-TL, SD-TLH, SD-TLHA and blue colour on SD-TLHA + X-α-gal, 30 °C, 3–4 days; positive clones verified again after the library screen; conditions: partners not purified
T3 construct: Spike (S) protein of porcine epidemic diarrhea virus strain PEDV-JSXH-2021 (G1b type); source: yeast two-hybrid fusion (AH109)

Binder | concentration of VHH that completely neutralises infection of Vero E6 cells by PEDV-JSXH-2021 (serial dilutions from 200 ng/µL, read by IFA after 5 to 7 days) [1] [ng/µL] | other results
B1 | 50 | 
B2 | 100 | 
B3 |  | binding result [2]: binds; binding result [3]: binds
B4 |  | binding result [4]: binds
B5 | 12.5 | 
B6 | 25 | 
B7 | 50 | 
B8 | 12.5 | 
B9 | 25 | 
